We go through one molecule from patent US20250145926A1, “DEVICES, METHODS, AND SYSTEMS FOR ASSESSING CELL MIGRATION AND RELATED PROCESSES” (University of Washington, priority 2023, published 2025).

This series has as its system differentiated HL-60 neutrophils. The series can be described thus: vE/D ratio and ectodomain charge estimation, under-agarose cells immobilized with Latrunculin A in an electric field. The settings on record: averaged across all electric field conditions; ± SEM. The series is classed as cell-based, human. On the procedure:
Experimental Setup. Cells were resuspended to a concentration of 2×10^6 cells/ml in L-15 Medium with 10% hiFBS. With an ibiTreat μ-Slide-I (Ibidi, #80106) placed on a 37° C. heat block, 100 μL of cells were added to the channel and incubated for 5 minutes to allow them to sediment and loosely adhere to the bottom coverslip. Warm, liquid 2.5% UltraPure low melting point agarose (Invitrogen of Waltham, MA, #16520-050) in L-15 with 10% hiFBS was added to one channel reservoir and then centrifuged at 28-37° C. for 5 min at 700 g. This was performed in a custom 3D-printed swinging bucket rotor plate adaptor (design available upon request). Immediately after centrifugation, the slide was incubated on a 20° C. cooling plate (STIR-KOOL, Ladd Research of Essex Junction, VT; #SK-12D-AW) for 5 minutes to gel. […] L-15 media with 10% hiFBS was added to both reservoirs. […]
Quantification of vE/D Ratio and Estimation of Charge. […] Under the imaging conditions (800 nm axial resolution), the measured fluorescence intensities will reflect fluorescence predominantly at this surface, and the biological system is treated as a flat two-dimensional surface. […]

B1: Galvanin: single-pass transmembrane protein (161 amino acids, UniProt ID: Q6P9G4), electric field sensor (protein)
chain: NYEELENSGDTTVESERPNKVTIPSTFAAVTIKETLNANINSTNFAPDENQLEFILMVLIPLILLVLLLLSVVFLATYYKRKRTKQEPSSQGSQSALQTYELGSENVKVPIFEEDTPSVMEIEMEELDKWMNSMNRNADFECLPTLKEEKESNHNPSDSES
As to B1, the “net charge estimated from vE/D” value is recorded as −18 e.
